Reference: the nanobody polyreactivity screen of Harvey et al. (2022)

Experiment: yeast display, Sf9 membrane polyspecificity reagent, FACS + sequencing; frameworks hold sequencing errors
In short: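 Nanobodies came from a synthetic yeast display library in Saccharomyces cerevisiae BJ5465, induced with galactose for 36–48 hours and stained for 1 hour at 4 °C with 10% biotinylated, detergent-solubilized Sf9 membrane reagent. Cells were enriched on streptavidin microbeads and then FACS-sorted, with low and high (top ~1%) gates set on anti-HA fluorescence for expression and streptavidin fluorescence for reagent binding. Each polyreactivity label reflects the gate a clone came from. Genes were amplified by colony PCR, sequenced by MiSeq 2 × 250 and filtered by CDR length.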

Row | Sequence | polyreactivity (PSR sort gate)
1 | QVQLVESGGGLVQAGGSLRLSCAASGRIFWPYARGWYRPAPGKERELVAAITSGGSTYYADSVKGRFTISRDNAKNTVYLQMNSLKQEDTAVYYCAKLSSGVSVPVAYGGIKRYNSWGQGTQVTVSS | low polyreactivity
2 | QVQLVESGGGLVQAGGSLRLSCAASGRTFYGYAMGWYRQAPGKERELVAAISRRGGSTNYADSVKGRFTLSRDNAKNTVYLQMNSLKPEDTAVYYCNVAFRIPYRMDYWGQGTQVTVSS | high polyreactivity
3 | QVQLVESGGGLVQAGGSLRLSCAASGSIFRYYAMGWYRQAPGKEREFVASITYRGGRTYYADSVKGRFTISRDNAKNTVYLQLNSLKPEDTAVYYCAARTRAGAWTSKYLDYWGQGTQVTVSS | high polyreactivity
4 | QVQLVESGGGLVQAGGSLRLSCSASGSTFYYYAMGRYIQAPGKDRELVAAISSSGGTTYYADSVKGRFTISRDNAKNTVYLQMNSLKPEDTAVYYCAAQRYPSSLYQRFYYWGQGTQVTVSS | high polyreactivity
5 | QVQLVESGGGLVQAGGSLRLSCAASGITFGAYAMGWYRQAPGKERELVASISSSGSTYADSVKGRFTISRDNAKNTVYLQMNSLKPEDTGVYYCNAVGFQANDYNYWGQGTQVTVSS | low polyreactivity
6 | QVQLVESGGGLVQAGGSLRLICAASGIIFDSYAMGWYSQEPGKERELVAAITSDSGRTYYADSVKGRFTISRDNAKNNVYLEMNSLKPEDTAVYYCAKRWDGPYDYWGQGTQVTVSS | low polyreactivity
7 | QVQLVESGGGLVQAGGSLRLSCAASGSIFRRYAMGWYRQAPGKERELVAAITNGGGSTYYADSVKGRFTISRDNAKNTVYLQMNSLKPEDSAVYYCARRLASNYGAYDYWGQGTQVTVSS | low polyreactivity
8 | QVQPQESAGGLVQAGGSLLQSSAASAYIFPYYSMGWYRQAPGKERGLVACIAAGTTTNYADSVKGRFTISRDNAKNTVYLQMKSLKPEDAAVYYCAALKAFNTGHWYWGQGTQVTVSS | low polyreactivity
9 | QVQLVESGGGLVQAGGSLRLSCAASGITFYRKAMGWYRPAPGKEREFVAAINYGGSSTRYADSVKGRFTISRDYAKNTVYLQMNSLKPEDTAVYYCAVEKRYPRRRYDYWGQGTQVTVSS | low polyreactivity
10 | QVQLVESGGGLVQAVGSLRLSCAAYGSTFYVNAMGWYRQAPGKEREFVAAITWNSGSTYYADSVKGRFTISRDNAKNTVYLQMNSLKPEDTAVYYCAAVLYVRVYGYDYWGQGTQVTVSS | low polyreactivity
11 | QVQLVESGGGLVQAGGSLRLSCAASGFIFQIYAMGWYRQAPGKERELVAAISSGGSTNYADSVKGRFTISRDNAKNTVYLQMNSLKPEDTAVYYCAAATHYWYFYSFKDKSGFRGYYWGQGTQVTVSS | high polyreactivity
12 | QVQLVESGGGLVQAGGSLRLSCDASGNIFYPNAMGLYRQAPGKERELVAAISSSGGSTYYADSVKGRFTISRDNAKNTVYLQMNSLKPEDTAVYYFAKDRSYAYYLWPYPTGYDYWGQGTQVTVSS | low polyreactivity
13 | QDQLVESGGGLVQAGGSLRLSCAASGFIFALYAMGWYRQAPGKERELVAAINWSGGRTYYADSVKGRFTISRDNAKNTVYLQMNSLKPEDTAVYYCNRRAFSPYAANYYYWGQGTQVTVSS | high polyreactivity
14 | QVQLVESGGGLVQAGGSLRLSCAASGRIFRYNAMGWYRQAPGKERELVAAITSGTGTNYADSVKGRFTISRDNAKNTVYLQMNSLKPEDTAVYYCNKDRKSYRYDYWGQGTQVTVSS | low polyreactivity
15 | QVQLVESGGGLVQAGGSLRLSCTASGSIFSHNSMGWYRQAPGKERELVAAINQNGGITYYADSVKGRFTISRDNAKNTVYLQMNSLKPEDTAVYYCAARRYYRRPHKYDYWGQGTQVTVSS | high polyreactivity
16 | QVQLVESGGGLVQAGGSLRLSCAASGITFTLYAMGWYRQAPGKERELVASISWSGGSTYYADSVKGRFTISRDIAKNTVYLQMNSLKPEDTAVYYCNAVYARKYYYSHGYDYWGQGTQVTVSS | high polyreactivity
17 | QVQLVESGGGLVQAGGSLRLSCAASGLTFYGYGMGWYRQAPGKERELVASITSGGNTYYADSVKGRFTISRDNAKNTVYLKMNSLKPEDTAVYYCAVTAIALYYSSGYYWGQGTQVTVSS | low polyreactivity
18 | QVQLVESGGGLVQAGGSLRLSCAASGSTSQRNAMGWYRQAPGKERELVAGITTSGGRTYYADSVKGRFTISRDNAKNTVYLQMNSLKPEDTAVYYCAARTQIWKYRGYYSWGQGTQVTVSS | high polyreactivity
19 | QVQLVESGGGLVQAGGSLRLSCAAYGLTLGRNAMGWYRQAPGKERELVAAITQSGGSTYYADSVKGRFTISRDNAKITVYLQMNSLKPEDTAVFYGAAQYSWGHYYTFDYWGQGTQVTVSS | low polyreactivity
20 | QVQIVESGGGLVQAGGSLRLSCAASGSIFTPYAMGWYRQATGKERELVADIDASGGGTYADSVKGRFTISRDNANNTVYLQMNSLKPEDTAVYYCNTDPYSSAWYNYDYWGQGTQVTVSS | low polyreactivity
21 | QVQLVESGGGLVHAGGSLRVSCAASGIIFDGNAMGWYRQAPGKERELVAAITASGGSTHYADSVKGRFTISRDNAKNTVYLQMNSLKPEDTAVYYCNKRSRTTGDYDYWGQGTQVTVSS | low polyreactivity
22 | QVQLVESGGGLVQAGGSLRLSCAASGNTFGNYGMGWYRQAPGKEREFVAAITSRGTSTYYADSVKGRFTISRDNAKNTVYLQMNSLKPEDTAVYYCNARPRYKYPRYDYWGQGTQVTVSS | high polyreactivity

Row | Sequence | polyreactivity (PSR sort gate)
23 | QVQLVESGGGLVQAGGSLRLSCAASGRIFVYYVMGWYRQAPGKERELVAAITYSGGSTYYADSVKGRFTISRDNAKNTVYLQMNSLKPEDTAVYYCNKVDAFGIVRLYYWGQGTQVTVSS | low polyreactivity
24 | QVQLVESGGGLVQAGGSLRLSCAASGGIFGFNAMGWYRQAPGKERELVADISDGVRTNYADSVKGRFTISRDNAKNTVFLQMNSLKPEDTAVYYCATDGLFYVDGSWTLGYWGQGTQVTVSS | low polyreactivity
25 | QVQLVESGGGLVQAGGSLRLSCAASGRTFGYYAMVWYRQAPGKERELVAAISTSGGGTYYADSVKGRFTISRDNAKNTVYLQMNSLKPEDTAVYYCNRDSRVLEGDYWGQGTQVTVSS | low polyreactivity
26 | QVQHVESWRGLVQAGGSLRLSCDASGSIIQIYAMGWYRQAPGKVRELVASITWSGGSPYYADSVKGRFTISRDNAKNTVYLQMNSLKPEDTAVFYCATDKLYGRTVRMDYWGQGTQVTVSS | low polyreactivity
27 | QLQLVDSGGGLVQAGGSLRLSCADSGRTYGAYTMGWYRKAPGKERELVAAINWSGGDTYYADSVKVRFTISRDNAKNTVYLQMNRLKPEDTAVYYCNAEPRYGTYDYWGQGTQVTVSS | low polyreactivity
28 | QVQLVESGGGLVQAGGSLRLSCAASGFTFSRYAMGWYRQAPGKERELVAVITWNGGRTYYADSVKGRFTISRDNAKNTVYLLMNSLKPEDTAVYYCKAYYFFLPYRYSTYDYWGQGTQVTVSS | high polyreactivity
29 | QVQLVESGGGLVQAGGSLRLSCAASGSILYSYTMGWYRQAPGKERELVAAINRGGRTNYADSVKGRFTISRDNAKNTVYLQMNSLKPEDTAVYYCNTGIYAWSWRRAMDYWGQGTQVTVSS | high polyreactivity
30 | QVQLVESGGGLVQAGGSLRLSCAASGSIFDRYAMGWYRQAPGKERELVAAISTDGTRTYYADSVKGRFTISRDNAKNTVYLQMNSLKPEDTAVYYGAKYWRSNYYYWGQGTQVTVSS | high polyreactivity
31 | QVQLVESGGGLVQAGGSLRLSCAASGSIFRYYAMGWYRQAPGKERELVAGISRSGGSTYYADSEKGRFTISRDNAKNTVYLQMNSLKPEDTAVYYCAATAYSPRGKRYDSWGQVTQVTVSS | high polyreactivity
32 | QVQLVESGGGLVQAGGSLRLSCAASGFISGYYTMRWYRQAPGKERELVAVINSGGSTYYADSVKGRFTISRDNAKNTVYLQMNSLKPEDTAVYYCAKLGGKYSRYYYWGQGTQVTVSS | low polyreactivity
33 | QVQLVESGGGLVQAGGSLRLSCAASGSILGGNAMGWYRQAPGKERELVAANTFSGGGTYYADSVKGRFTISRDNAKNTVYLQMKSLKPEDTAVYYCNADYKSTVFRYSGSRNYWGQGTQVTVSS | low polyreactivity
34 | QVQLVESGGGLVQAGGSLRLSCAASGFTFRYYAMGWYRQAPGKEREFVAAIRWRGATTYYADSVKGRFTISRDNAKNTVLLQMNSLKPEDTAVYYCAARYVYNSDRVSERDYWGQGTQVTVSS | high polyreactivity
35 | QVQLVESGVGLVQAGGSLRLSCAATGFTFYWYTMGWYIQAPGKERELVAAISASGGRTYYADSVKGRFTISRDNAKNTVYLQMNSLKPEDTAVYYCAARFRTWGNREAGYYWGQGTQVTVSS | high polyreactivity
36 | QVPLVESVGGLVQAGGRLRLSCAASGSIFGHNTMGWYREAPGKERELVAAISVSGTRTYYADSVKGRFTISRDNAKNTVYLQMNSLKPEDTAVYYCAAEISRVRQGVAWSYKYEYWGQGTQVTVSS | high polyreactivity
37 | QFQLVESGGGLVQAGGSLRLSCAASGSIIWWNAMGWYRQAPGKERELVASIGDSTYYADSVKGRFTISRDNAKNTVYLQMNSLKPEDTAVYYCNAEVLNYLVFGYQLGYDYWGQGTQVTVSS | low polyreactivity
38 | QVQLVESGGGLVQAGGSLRLSCAASGRTFIGYAMGWYRQAPGKERELAAGISWSGGSTYYADSVKGRFTISRDNAKNTVYLQMNSLKPEDTAVYYCAARGRWSTEYGYWGQGTQVTVSS | low polyreactivity
39 | QVQLVESGGGLVQAGGSLRLSCAASGRTLYFNAMGWYRQAPGKERELVADISIGGSTYYADSVKGRFTISRDNAKNTVYLQMNSLKPEDTAVYYCAANAHYYVSYAWYVDVDYWGQGTQVTVSS | high polyreactivity
40 | QVQLVESGGRKVQAGGSLRLSCAASGSTIWPYAMGCYRQAPAKERELVAAISNGGGTKYADSVKGRFTISRDNAKNTVYLQMNSLKPEHTAVYYCAKTLWTGRAWYDYWGQGTQVTVSS | high polyreactivity
41 | QVQLVESGGGLVQAGGSLRLSCAASGNIFAYYAMGWYRQAPGKERELVAAITDSGGNTFYADSVKGRFTISRDNAKNTVYLQMNSLKPEDTAVYYCAVRHRYTRAYWGRDYWGQGTQVTVSS | low polyreactivity
42 | QVQLQESGGGLVQAGGSLRLSCAASGTIFTARIMGWYRQAPGKERELVATITDGGNTNHADSVKCRFTISRDNAKITVYLQMNSLKPEDAAVYYCAAGEVDNDTLLYWGQGSQVTVSS | low polyreactivity
43 | QVQLVESGGGLVQAGGSLRLSCAASGSTFIGYAMGWYRQAPGKERELVAAISRRGSRTYYADSVKGRFTISRDNAKNTVYLQINSLKPEDTAVYYCNRDYREYGYAYSGRYYWGQGTQVTVSS | high polyreactivity
